How the values were obtained:
[1] = system: EcCRP-HIS (Escherichia coli); experiment: EMSA
[2] = system: HiCRP-HIS (Haemophilus influenzae); experiment: EMSA

Row | Substance | binding signal [1] | binding signal [2]
1 | pilA-N promoter (CRP-N), Fig. 3 bait | 77 % shifted | 6 % shifted
2 | pilA promoter (CRP-S), Fig. 3 bait | 30 % shifted | 
